Results published in patent publication US20230257467A1 (DRAGONFLY THERAPEUTICS, published 2023).

B1: PANI-H_S62R-L_F87Y-L_D92R (scFv, V domains shown)
VH: QVQLQESGPGLVKPSETLSLTCTVSGGSVSSGDYYWTWIRQSPGKCLEWIGHIYYSGNTNYNPRLKSRLTISIDTSKTQFSLKLSSVTAADTAIYYCVRDRVTGAFDIWGQGTMVTVSS
VL: DIQMTQSPSSLSASVGDRVTITCQASQDISNYLNWYQQKPGKAPKLLIYDASNLETGVPSRFSGSGSGTDFTFTISSLQPEDIATYYCQHFRHLPLAFGCGTKVEIK
notes: also called EGFR-scFv-3
B2: EGFR-TriNKET-2 (bispecific antibody, human IgG1, kappa)
chain: DIQMTQSPSSLSASVGDRVTITCQASQDISNYLNWYQQKPGKAPKLLIYDASNLETGVPSRFSGSGSGTDFTFTISSLQPEDIATYYCQHFDHLPLAFGCGTKVEIKGGGGSGGGGSGGGGSGGGGSQVQLQESGPGLVKPSETLSLTCTVSGGSVSSGDYYWTWIRQSPGKCLEWIGHIYYSGNTNYNPRLKSRLTISIDTSKTQFSLKLSSVTAADTAIYYCVRDRVTGAFDIWGQGTMVTVSSGSDKTHTCPPCPAPELLGGPSVFLFPPKPKDTLMISRTPEVTCVVVDVSHEDPEVKFNWYVDGVEVHNAKTKPREEQYNSTYRVVSVLTVLHQDWLNGKEYKCKVSNKALPAPIEKTISKAKGQPREPRVYTLPPCRDELTKNQVSLTCLVKGFYPSDIAVEWESNGQPENNYKTTPPVLVSDGSFTLYSKLTVDKSRWQQGNVFSCSVMHEALHNHYTQKSLSLSPG
heavy: EVQLVESGGGLVKPGGSLRLSCAASGFTFSSYSMNWVRQAPGKGLEWVSSISSSSSYIYYADSVKGRFTISRDNAKNSLYLQMNSLRAEDTAVYYCARGAPIGAAAGWFDPWGQGTLVTVSSASTKGPSVFPLAPSSKSTSGGTAALGCLVKDYFPEPVTVSWNSGALTSGVHTFPAVLQSSGLYSLSSVVTVPSSSLGTQTYICNVNHKPSNTKVDKKVEPKSCDKTHTCPPCPAPELLGGPSVFLFPPKPKDTLMISRTPEVTCVVVDVSHEDPEVKFNWYVDGVEVHNAKTKPREEQYNSTYRVVSVLTVLHQDWLNGKEYKCKVSNKALPAPIEKTISKAKGQPREPQVCTLPPSRDELTENQVSLTCLVKGFYPSDIAVEWESNGQPENNYKTTPPVLDSDGSFFLYSWLTVDKSRWQQGNVFSCSVMHEALHNHYTQKSLSLSPG
light: DIQMTQSPSSVSASVGDRVTITCRASQGISSWLAWYQQKPGKAPKLLIYAASSLQSGVPSRFSGSGSGTDFTLTISSLQPEDFATYYCQQGVSFPRTFGGGTKVEIKRTVAAPSVFIFPPSDEQLKSGTASVVCLLNNFYPREAKVQWKVDNALQSGNSQESVTEQDSKDSTYSLSSTLTLSKADYEKHKVYACEVTHQGLSSPVTKSFNRGEC
notes: F3' format with three polypeptides: EGFR-scFv-2 (VL-VH)-Fc, A49MI-VH-CH1-Fc and A49MI-VL-CL; also called EGFR2
B3: EGFR-TriNKET-3 (bispecific antibody, human IgG1, kappa)
chain: DIQMTQSPSSLSASVGDRVTITCQASQDISNYLNWYQQKPGKAPKLLIYDASNLETGVPSRFSGSGSGTDFTFTISSLQPEDIATYYCQHFRHLPLAFGCGTKVEIKGGGGSGGGGSGGGGSGGGGSQVQLQESGPGLVKPSETLSLTCTVSGGSVSSGDYYWTWIRQSPGKCLEWIGHIYYSGNTNYNPRLKSRLTISIDTSKTQFSLKLSSVTAADTAIYYCVRDRVTGAFDIWGQGTMVTVSSGSDKTHTCPPCPAPELLGGPSVFLFPPKPKDTLMISRTPEVTCVVVDVSHEDPEVKFNWYVDGVEVHNAKTKPREEQYNSTYRVVSVLTVLHQDWLNGKEYKCKVSNKALPAPIEKTISKAKGQPREPRVYTLPPCRDELTKNQVSLTCLVKGFYPSDIAVEWESNGQPENNYKTTPPVLVSDGSFTLYSKLTVDKSRWQQGNVFSCSVMHEALHNHYTQKSLSLSPG
heavy: EVQLVESGGGLVKPGGSLRLSCAASGFTFSSYSMNWVRQAPGKGLEWVSSISSSSSYIYYADSVKGRFTISRDNAKNSLYLQMNSLRAEDTAVYYCARGAPIGAAAGWFDPWGQGTLVTVSSASTKGPSVFPLAPSSKSTSGGTAALGCLVKDYFPEPVTVSWNSGALTSGVHTFPAVLQSSGLYSLSSVVTVPSSSLGTQTYICNVNHKPSNTKVDKKVEPKSCDKTHTCPPCPAPELLGGPSVFLFPPKPKDTLMISRTPEVTCVVVDVSHEDPEVKFNWYVDGVEVHNAKTKPREEQYNSTYRVVSVLTVLHQDWLNGKEYKCKVSNKALPAPIEKTISKAKGQPREPQVCTLPPSRDELTENQVSLTCLVKGFYPSDIAVEWESNGQPENNYKTTPPVLDSDGSFFLYSWLTVDKSRWQQGNVFSCSVMHEALHNHYTQKSLSLSPG
light: DIQMTQSPSSVSASVGDRVTITCRASQGISSWLAWYQQKPGKAPKLLIYAASSLQSGVPSRFSGSGSGTDFTLTISSLQPEDFATYYCQQGVSFPRTFGGGTKVEIKRTVAAPSVFIFPPSDEQLKSGTASVVCLLNNFYPREAKVQWKVDNALQSGNSQESVTEQDSKDSTYSLSSTLTLSKADYEKHKVYACEVTHQGLSSPVTKSFNRGEC
notes: F3' format with three polypeptides: EGFR-scFv-3 (VL-VH)-Fc, A49MI-VH-CH1-Fc and A49MI-VL-CL; also called EGFR3
B4: EGFR-TriNKET-1 (bispecific antibody)
scFv-Fc: DIQMTQSPSSLSASVGDRVTITCQASQDISNYLNWYQQKPGKAPKLLIYDASNLETGVPSRFSGSGSGTDFTFTISSLQPEDIATYFCQHFDHLPLAFGCGTKVEIKGGGGSGGGGSGGGGSGGGGSQVQLQESGPGLVKPSETLSLTCTVSGGSVSSGDYYWTWIRQSPGKCLEWIGHIYYSGNTNYNPSLKSRLTISIDTSKTQFSLKLSSVTAADTAIYYCVRDRVTGAFDIWGQGTMVTVSSGSDKTHTCPPCPAPELLGGPSVFLFPPKPKDTLMISRTPEVTCVVVDVSHEDPEVKFNWYVDGVEVHNAKTKPREEQYNSTYRVVSVLTVLHQDWLNGKEYKCKVSNKALPAPIEKTISKAKGQPREPRVYTLPPCRDELTKNQVSLTCLVKGFYPSDIAVEWESNGQPENNYKTTPPVLVSDGSFTLYSKLTVDKSRWQQGNVFSCSVMHEALHNHYTQKSLSLSPG
heavy: EVQLVESGGGLVKPGGSLRLSCAASGFTFSSYSMNWVRQAPGKGLEWVSSISSSSSYIYYADSVKGRFTISRDNAKNSLYLQMNSLRAEDTAVYYCARGAPIGAAAGWFDPWGQGTLVTVSSASTKGPSVFPLAPSSKSTSGGTAALGCLVKDYFPEPVTVSWNSGALTSGVHTFPAVLQSSGLYSLSSVVTVPSSSLGTQTYICNVNHKPSNTKVDKKVEPKSCDKTHTCPPCPAPELLGGPSVFLFPPKPKDTLMISRTPEVTCVVVDVSHEDPEVKFNWYVDGVEVHNAKTKPREEQYNSTYRVVSVLTVLHQDWLNGKEYKCKVSNKALPAPIEKTISKAKGQPREPQVCTLPPSRDELTENQVSLTCLVKGFYPSDIAVEWESNGQPENNYKTTPPVLDSDGSFFLYSWLTVDKSRWQQGNVFSCSVMHEALHNHYTQKSLSLSPG
light: DIQMTQSPSSVSASVGDRVTITCRASQGISSWLAWYQQKPGKAPKLLIYAASSLQSGVPSRFSGSGSGTDFTLTISSLQPEDFATYYCQQGVSFPRTFGGGTKVEIKRTVAAPSVFIFPPSDEQLKSGTASVVCLLNNFYPREAKVQWKVDNALQSGNSQESVTEQDSKDSTYSLSSTLTLSKADYEKHKVYACEVTHQGLSSPVTKSFNRGEC
notes: also called EGFR1
B5: EGFR-TriNKET-4 (bispecific antibody, human IgG1, kappa)
chain: DIQMTQSPSSLSASVGDRVTITCQASQDISNYLNWYQQKPGKAPKLLIYDASNLETGVPSRFSGSGSGTDFTFTISSLQPEDIATYYCQHFRHLPLAFGCGTKVEIKGGGGSGGGGSGGGGSGGGGSQVQLQESGPGLVKPSETLSLTCTVSGGSVSSGDYYWTWIRQSPGKCLEWIGHIYYSGNTNYNPSLKSRLTISIDTSKTQFSLKLSSVTAADTAIYYCVRDRVTGAFDIWGQGTMVTVSSGSDKTHTCPPCPAPELLGGPSVFLFPPKPKDTLMISRTPEVTCVVVDVSHEDPEVKFNWYVDGVEVHNAKTKPREEQYNSTYRVVSVLTVLHQDWLNGKEYKCKVSNKALPAPIEKTISKAKGQPREPRVYTLPPCRDELTKNQVSLTCLVKGFYPSDIAVEWESNGQPENNYKTTPPVLVSDGSFTLYSKLTVDKSRWQQGNVFSCSVMHEALHNHYTQKSLSLSPG
heavy: EVQLVESGGGLVKPGGSLRLSCAASGFTFSSYSMNWVRQAPGKGLEWVSSISSSSSYIYYADSVKGRFTISRDNAKNSLYLQMNSLRAEDTAVYYCARGAPIGAAAGWFDPWGQGTLVTVSSASTKGPSVFPLAPSSKSTSGGTAALGCLVKDYFPEPVTVSWNSGALTSGVHTFPAVLQSSGLYSLSSVVTVPSSSLGTQTYICNVNHKPSNTKVDKKVEPKSCDKTHTCPPCPAPELLGGPSVFLFPPKPKDTLMISRTPEVTCVVVDVSHEDPEVKFNWYVDGVEVHNAKTKPREEQYNSTYRVVSVLTVLHQDWLNGKEYKCKVSNKALPAPIEKTISKAKGQPREPQVCTLPPSRDELTENQVSLTCLVKGFYPSDIAVEWESNGQPENNYKTTPPVLDSDGSFFLYSWLTVDKSRWQQGNVFSCSVMHEALHNHYTQKSLSLSPG
light: DIQMTQSPSSVSASVGDRVTITCRASQGISSWLAWYQQKPGKAPKLLIYAASSLQSGVPSRFSGSGSGTDFTLTISSLQPEDFATYYCQQGVSFPRTFGGGTKVEIKRTVAAPSVFIFPPSDEQLKSGTASVVCLLNNFYPREAKVQWKVDNALQSGNSQESVTEQDSKDSTYSLSSTLTLSKADYEKHKVYACEVTHQGLSSPVTKSFNRGEC
notes: F3' format with three polypeptides: EGFR-scFv-4 (VL-VH)-Fc, A49MI-VH-CH1-Fc and A49MI-VL-CL; also called EGFR4

What was measured:
[1] = target: T1, recombinant human EGFR-His (human, UniProt P00533 25-645); experiment: SPR, single point mutant scFv constructs
T1 construct: also called epidermal growth factor receptor; ErbB-1; not shown: His tag (EGFR-His)

[2] = target: T2, recombinant rhesus EGFR-His (rhesus macaque, UniProt P55245 25-645, limits assumed); experiment: SPR, single point mutant scFv constructs
T2 construct: also called Rhesus macaque EGFR; not shown: His tag (EGFR-His)

[3] = target: T1, recombinant human EGFR-His; experiment: SPR, combination mutant scFv constructs
[4] = target: T2, recombinant rhesus EGFR-His; experiment: SPR, combination mutant scFv constructs
[5] = target: T1, recombinant human EGFR-His; experiment: SPR, Biacore 8K, 37 C, TriNKET captured on anti-hFc IgG chip, EGFR-His injected, N=4
Procedure: (§1) Kinetics and affinities of EGFR binding constructs for recombinant human and rhesus EGFR were measured by SPR using a Biacore 8K instrument. Samples were captured on the anti-hFc IgG chip and a range of concentrations of human or rhesus recombinant EGFR-His was injected over captured test articles. Experiments were performed at physiological temperature of 37° C. Data were analyzed using Biacore 8K Insight Evaluation software (GE Healthcare).

[6] = target: T3, EGFR expressed on H2172 human cancer cells (human, UniProt P00533 25-1210); experiment: flow cytometry on EGFR-positive H2172 cells, 4 C for 0.5 h, fluorophore-conjugated anti-human IgG secondary antibody
T3 construct: whole, on cells; also called EGFR-positive H2172 cancer cells; EGFR+ cells
Procedure: This example was designed to assess the binding affinity of the EGFR-targeting TriNKETs to EGFR expressed on cell surface. The H2172 human cancer cell line, derived from non-small cell lung carcinoma, was used. […] Cells were analyzed by flow cytometry and fold MFI over secondary-only controls reported.

[7] = target: T1, recombinant human EGFR-His; experiment: SPR, Biacore 8K, 37 C, TriNKET captured on anti-hFc IgG chip, EGFR-His injected, N=4; column head prints KD (nM) but the cells carry E-09
Procedure: as §1

Row | Molecule | koff [5] [s⁻¹] | kon [5] [M⁻¹ s⁻¹] | EC50 (read off the curve) [6] [nM] | Kd [7] [nM] | also measured
1 | PANI-L-D92R (scFv) | – | – | – | – | Kd [1]: 3.27 nM; koff [1]: 0.000839 s⁻¹; kon [1]: 256000 M⁻¹ s⁻¹; Kd [2]: 5.09 nM; koff [2]: 0.00096 s⁻¹; kon [2]: 189000 M⁻¹ s⁻¹
2 | B1 | – | – | – | – | Kd [3]: 3.38 nM; koff [3]: 0.00099 s⁻¹; kon [3]: 293000 M⁻¹ s⁻¹; Kd [4]: 5.36 nM; koff [4]: 0.00112 s⁻¹; kon [4]: 209000 M⁻¹ s⁻¹
3 | B2 | 0.000988 | 500000 | ~0.5 | 1.98 | –
4 | B3 | 0.00093 | 295000 | ~0.9 | 3.16 | –
5 | B4 | 0.000967 | 592000 | ~0.3 | – | –
6 | B5 | 0.000745 | 316000 | – | 2.36 | –
